Test results from patent publication US9114148.

Target: cardiac protein phosphatase 1 (type 1 phosphatase activity of mouse hearts) (mouse)
Experiment: cell-based or functional assay

Q: How did the type 1 phosphatase activity turn out when “constitutively active, truncated inhibitor-1 (I-T35D; AA 1-65), mouse (from UniProt Q9ERT9 1-65)” was run?
A: 15 % decrease
